Laboratory results: the supplement of paper PMC10567573
± gives the standard deviation.

Assay: protein stability index of a GFP-peptide fusion (GPS, HEK-293T) (PSI 1-6); higher = more stable
Conditions: c terminus: a fixed tail appended
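Further: 24-mer peptide tiles fused after GFP, lentivirally expressed, FACS-sorted into six equal bins by GFP/DsRed ratio, decoded by Illumina sequencing, PSI is the read-weighted mean bin number.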

| Sequence | protein stability index (treatment: DMSO) | protein stability index (treatment: MLN4924 1 uM, 8 h) |
| --- | --- | --- |
| MEHQLLCCEVETIRRAYPDANLLN [CCND1] | 2.86 ± 0.24 | 2.87 ± 0.28 |
| DQTGKEVADRWYSEIKNYNFQQPG [GLIPR2] | 4.15 ± 0.34 | 3.88 ± 0.31 |
| AAAQSYPGYLPYSPEPPSLYGALN [IRX6] | 2.68 ± 0.077 | 2.87 ± 0.2 |
| VEMESEEQIAERKRKMVSWEASSL [KMT2E] | 3.67 ± 0.22 | 3.87 ± 0.73 |
| KPYGCVECGKAFSRSSILVQHQRV [ZNF24] | 2.07 ± 0.17 | 2.11 ± 0.2 |
| YQLCHALRFLHENQLTHTDLKPEN [CLK3] | 4.62 ± 0.23 | 4.76 ± 0.37 |
| TMTSSQSMNFSMMSTNTVGLGLPM [CLINT1] | 3.02 ± 0.18 | 2.68 ± 0.083 |
| SHRSNLIRHQRIHTGEKPYTCHEC [ZNF263] | 3.16 ± 0.26 | 3.49 ± 0.23 |
| HNGKIYISGGVHNGEYVPWLYCYD [KLHL14] | 2.13 ± 0.68 | 2.32 ± 0.48 |
| RDLPDTPRRFTFYPCVLATEGFTS [TRIM39] | 2.56 ± 0.21 | 2.5 ± 0.2 |
| NRSLAEACSEGDVNAVRKLLIEGR [ANKRD17] | 4.01 ± 0.26 | 4.12 ± 0.27 |
| CTEKFKTSRDRKDHMVRMHLYPAD [ZNF511] | 3.49 ± 0.38 | 3.48 ± 0.25 |
| VEEILDRENKRMADSLASKVTRLK [BET1L] | 4.31 ± 0.4 | 4.52 ± 0.23 |
| AAETASLEEQLQGWGEVMLMADKV [ARL6IP1] | 4.53 ± 0.082 | 4.45 ± 0.19 |
| RPAFVRVRRGHSHLAPSEAKAADS | 4.35 ± 0.1 | 4.45 ± 0.16 |
| VSGFCRSPPVMVAGGRVFVLPCIQ [FLOT1] | 2.43 ± 0.38 | 2.45 ± 0.5 |
| GTAFDAETDSEMNSQESRSDLEDM [SMG5] | 5.63 ± 0.24 | 5.5 ± 0.49 |
| SSSVETGPSVSEPPGLPRVSAYVD [SPATS1] | 4.77 ± 0.35 | 4.72 ± 0.21 |
| IWFRVPYSIISLLLKDKVRERIQI [PTPN9] | 2.56 ± 0.65 | 2.77 ± 1.5 |
| SEKETMQFLNDRLASYLEKVRQLE [KRT33B] | 2.55 ± 0.12 | 2.66 ± 0.28 |
| NSTGGDCFYRGYTSGVAAVQDWYH [SCNN1D] | 2.36 ± 0.16 | 2.43 ± 0.5 |
| GLQLPSTLPVSGNLLDVYSSQGVA [TFE3] | 3.15 ± 0.53 | 3.4 ± 0.36 |
| RIVHLQETCDLGKIKPEARRYLEK [NLN] | 3.25 ± 0.51 | 3.66 ± 0.67 |

| Sequence | protein stability index (treatment: DMSO) | protein stability index (treatment: MLN4924 1 uM, 8 h) |
| --- | --- | --- |
| PAAPTPESFTVHFLPLNSAQTLHH [DNAAF3] | 2.87 ± 0.22 | 3.02 ± 0.23 |
| KVRQLERDNAELEKLIQERSQQQE [KRT34] | 5.17 ± 0.22 | 5.28 ± 0.24 |
| NCPGQYTFSMPSDSHVSSCSEDWV [CD69] | 3.8 ± 0.21 | 4.06 ± 0.22 |
| LWWIAPGDETAHRIDSQFLIGDTL [MYORG] | 1.95 ± 0.23 | 2.06 ± 0.43 |
| RCPVTVCGDVHGQFHDLMELFRIG [PPP2CA] | 2.2 ± 0.35 | 2.24 ± 0.14 |
| TVFCLVVIFALCWFPLHLSRILKK [EDNRA] | 2.41 ± 0.61 | 2.42 ± 1.3 |
| MRMSDTVTVKDETATMKDLEAEVK [R3HDM1] | 5.46 ± 0.072 | 5.37 ± 0.092 |
| QAYLDDCHRRYSCAHCRAHLANHD [YPEL3] | 2.68 ± 0.43 | 2.45 ± 0.39 |
| VGGATLAQTTSEAAMEGATLDQTT [HDAC6] | 5.44 ± 0.11 | 5.39 ± 0.26 |
| QLPFCGPNVIDNFLCDLYPLLKLA [OR4A15] | 2.64 ± 0.66 | 2.47 ± 0.25 |
| ILREIRHPNIITLHDIFENKTDVV [DAPK3] | 2.47 ± 0.21 | 2.54 ± 0.2 |
| QIEKKEKKLHKIQNKAQRQKDLIM [TAF7L] | 3.64 ± 0.32 | 3.85 ± 0.28 |
| LSATIGSILRELDTSMDGTEPPQN [SERTAD3] | 4.1 ± 0.15 | 4.26 ± 0.33 |
| QEAMFNMATLNRTAAGLMHTFNAH [SEPHS2] | 2.44 ± 0.12 | 2.54 ± 0.18 |
| KDIQPYMRRMVATWMLEVCEEQKC [CCND2] | 2.33 ± 0.24 | 2.65 ± 0.3 |
| LEIELQSQLSMKASLENSLEETKG [KRT16] | 5.28 ± 0.066 | 5.16 ± 0.17 |
| AVQHFYNIKLEGKVPMHKLFLEML [ESRRG] | 2.06 ± 0.42 | 2.23 ± 0.22 |
| RSDADLVVFLSPLTTFQDQLNRRG [OAS1] | 2.27 ± 0.22 | 2.33 ± 0.31 |
| HHSHSGPEISRIIVDPTTGKRYCR [PLK2] | 4.08 ± 0.16 | 4.32 ± 0.17 |
| APLLPHITATSLLGTRESDTEVIT [BCL2L13] | 4.58 ± 0.26 | 4.47 ± 0.2 |
| QLRKQKKKTGKSSTTALGDKQRKA [ELOA2] | 4.73 ± 0.51 | 4.82 ± 0.39 |
| SRAANQEQRANDLEQIMESVKSKI [CEP70] | 4.44 ± 0.22 | 4.49 ± 0.14 |
| IHERTHERERLYPFSECGEAVSDS [ZNF263] | 4.81 ± 0.41 | 4.88 ± 0.22 |

| Sequence | protein stability index (treatment: DMSO) | protein stability index (treatment: MLN4924 1 uM, 8 h) |
| --- | --- | --- |
| ILDSLLFFYDCSNNPISEHFHPTV [TENT5C] | 3.15 ± 0.71 | 3.13 ± 0.68 |
| SEFRALQFSLMLCAFVGALGGAAF [SPNS1] | 3.14 ± 0.048 | 3.04 ± 0.79 |
| RTSLSSGATVRSFSINSRLASSLG [CDC14A] | 2.76 ± 0.34 | 2.99 ± 0.48 |
| HKVAPLVQSLCAKHGIEYQSKPLL [FADS1] | 2.68 ± 0.34 | 3 ± 0.17 |
| PAEDPDDYDDGFSMKHTATARFQR [SMARCE1] | 4.81 ± 0.13 | 4.89 ± 0.17 |
| VTFKLDDGAISAHKPLLICSCEWM [RHOBTB1] | 3.08 ± 0.33 | 2.56 ± 0.62 |
| QAPGEENLLGEAAGGQDMADSMLM [HDAC6] | 5.36 ± 0.16 | 5.14 ± 0.36 |
| CKGRDHGVLDALHVLEGLFRTDPE [ZSWIM9] | 2.8 ± 0.05 | 2.81 ± 0.26 |
| CPAELRPQVPQPPSPAAVPRPPSN [TRAF3IP2] | 5.18 ± 0.13 | 5.01 ± 0.28 |
| QHCRQSLASRIRSNKKMLLLVGGL [KLHL14] | 2.54 ± 0.83 | 2.24 ± 0.43 |
| KEGGQAGSGQRVPALEEAPDSHQK [ELOA2] | 5.32 ± 0.21 | 5.47 ± 0.28 |
| IGCGNFGELRLGKNLYTNEYVAIK [CSNK1G3] | 2.07 ± 0.18 | 2.12 ± 0.44 |
| CHHGLVADSLQASMEKDATLNVDR [DLC1] | 4.35 ± 0.12 | 4.47 ± 0.25 |
| ENCLDAKSTSIQVIVKEGGLKLIQ [MLH1] | 2.7 ± 0.37 | 2.94 ± 0.22 |
| GGVGYGDSKDCILEPLSLPESPGG [ZNF277] | 4.43 ± 0.37 | 4.98 ± 0.19 |
| IISSDELNVRSEEQVFNAVMAWVK [KLHL20] | 2.28 ± 0.22 | 2.42 ± 0.32 |
| MPPQPGIPQQQGMRPPMPPHGQYG [ZNF207] | 4.31 ± 0.2 | 4.43 ± 0.11 |
| QELANIDPTWIESPKTNGHIENGP [SRPK2] | 4.92 ± 0.32 | 4.63 ± 0.19 |
| YFGSFATVGLLWFAHHSLFLHVRK [TMEM175] | 3.17 ± 0.56 | 3.15 ± 0.42 |
| QEMQQKLVELSAENEKLHQRVEQL [CEBPD] | 4.84 ± 0.1 | 4.74 ± 0.54 |
| AVQAQAGWLQHDFGHLSVFSTSKW [FADS1] | 2.23 ± 0.18 | 2.29 ± 0.33 |
| NDIMAYMFGFFFGRTPLIKLSPKK [CDS2] | 2.03 ± 0.31 | 2.08 ± 0.22 |
| APWNYHYHCPGSPDHQVPYGHDYP [TRAF3IP2] | 2.6 ± 0.46 | 3.23 ± 0.3 |

| Sequence | protein stability index (treatment: DMSO) | protein stability index (treatment: MLN4924 1 uM, 8 h) |
| --- | --- | --- |
| VLDCRPYLAFAASNVRGSLNVNLN [DUSP5] | 2.19 ± 0.34 | 1.99 ± 0.39 |
| TRQNGIQTNKPALRAVRQRSEFTL [STX5] | 3.19 ± 0.32 | 3.37 ± 0.39 |
| SRSYSPRRSRGSPRYSPRHSRSRS [SRSF1] | 5.39 ± 0.24 | 5.5 ± 0.25 |
| LQLLREENRALQQLLEQKQAYWAQ [CBY2] | 2.62 ± 0.18 | 2.94 ± 0.31 |
| TRAILRERICSEEERAKAKHLARQ [CHCHD3] | 3.52 ± 0.33 | 3.76 ± 0.27 |
| ARLAADDFRVKYETELAMRQSVEN [KRT18] | 4.39 ± 0.19 | 4.44 ± 0.21 |
| LTISPKAARVGLLQYSTQVHTEFT [MATN2] | – | 2.436 ± 0.019 |
| LGLVGYYIFRVANHQKDLFRRTDG [DHCR7] | 2.45 ± 0.2 | 2.6 ± 0.31 |
| YLNGASVLPHKSIGESVPEPRIIM [GMPPB] | 2.79 ± 0.35 | 2.84 ± 0.34 |
| TSTPEDKESGQEGVDSMAEEGTSD [SMARCE1] | 5.65 ± 0.25 | 5.51 ± 0.33 |
| DIETACKLLNITADPMDWSPSNVQ [SPDEF] | 2.75 ± 0.42 | 2.77 ± 0.17 |
| PLQDFPNSISSDKEATVPCTEILT [MIA2] | 4.55 ± 0.24 | 4.54 ± 0.24 |
| LHDIFENKTDVVLILELVSGGELF [DAPK3] | 1.87 ± 0.37 | 2.39 ± 0.58 |
| SEYRSDIINAKSNDGWTPLHVAAH [ASB7] | 3.19 ± 0.38 | 3.27 ± 0.11 |
| IERMKQIYQQLSRYRGLGLLASVP [CRY1] | 2.3 ± 0.49 | 2.36 ± 0.35 |
| DLGNACWVHKHFTEDIQTRQYRSI [SRPK2] | 2.61 ± 0.23 | 2.72 ± 0.11 |
| IASEPTNKHLFYAEDFSTMDEISE [MATN2] | 4.57 ± 0.27 | 4.59 ± 0.23 |
| CAQMLPPNLSPHAPWNYHYHCPGS [TRAF3IP2] | 2.56 ± 0.49 | 2.28 ± 0.29 |
| TGKGPSTHTQIDQQPPRLLIVHIA [M1AP] | 2.54 ± 0.34 | 2.44 ± 0.6 |
| RTSTFDPSHSDNLLHGLNLLWRKQ [KLHL14] | 2.96 ± 0.17 | 2.94 ± 0.15 |
| GIFKIEDSAQVARLWGIRKNRPAM [SPDEF] | 2.71 ± 0.4 | 2.86 ± 0.3 |
